{"source": "patent US20180280504A1", "about": "“GLYCAN-INTERACTING COMPOUNDS AND METHODS OF USE” (SIAMAB THERAPEUTICS, INC., priority 2014, published 2018)", "key": {"[1]": {"tested_on": "ST6GalNAc 1 transfected MDA-MB-231 cells (MDA-STn+)", "assay": "Flow cytometry-based analysis of antibody binding, STn+ cells", "parameters": "species or system human", "method": "Flow cytometry-based analysis is carried out to elucidate the curve-dose response for binding of antibodies to cell surface antigens. For these analyses, three cell lines are employed.\nMDA-MB-231 cells are human breast cancer cells. They are grown in Earle's Minimum Essential Medium supplemented with 10% fetal calf serum (FCS), 100 μg/ml penicillin, 100 UI/ml streptomycin and 45 μg/ml gentamycin. MCF-7 cells are also human breast cancer cells and are grown under the same conditions as MDA-MB-231 cells. Stably transfected versions of MDA-MB-231 and MCF-7 cells (clone TAH3.P10 for MDA-MB-231 cells and clone A12.1 for MCF-7 cells) that over express GalNAc α2,6-sialyltransferase (ST6GalNAc 1,) are also cultured under the same conditions with the exception of an added 1 mg/ml of G418 to support cells expressing the transgene. ST6GalNAc 1 is an enzme capable of sialylating GalNAc. As a result of over expression, transfected cells express high levels of Neu5Ac-STn (see Julien, S. et al., Glycoconjugate journal. 2001. 18, 883-93; the contents of which are herein incorporated by reference in their entirety). E3 cells are murine breast cancer cells. They are cultured in Dulbecco's E4 medium with 10% FCS. Stably transfected versions of E3 cells expressing high levels of Neu5Gc-STn (E3-STn) are cultured with 600 μg/ml of G418 and 200 μg/ml hygromycin. During growth and maintenance of experimental cells, trypsin is not used for cell passaging.\nFor analysis, cells are harvested using StemPro Accutase (Life Technologies, Carlsbad, Calif.) and washed with PBS comprising 5% FBS before pelleting by light centrifugation. Cell numbers and viability are determined by trypan blue dye exclusion analysis and cell concentrations are adjusted to 5×10^6 cells/ml in PBS with 5% FBS. 50 μl of cells are added to each well of an assay plate. Cells are combined with 50 μl solutions of antibody being analyzed or control antibodies and incubated for 1 hour at 4° C. Cells are washed and pelleted twice with PBS with 5% FBS before being treated with 100 μl of PBS with 5% FBS comprising a 1:1,500 dilution of anti-mouse IgG (Southern Biotech, Birmingham, Ala.,) conjugated to allophycocyanin (APC). Cells are incubated for 30 min at 4° C. before washing and resuspending in 200 μl of propidium iodide (PI) diluted 1:1000 in PBS with 5% FBS. Treated cells are then subjects to flow cytometry analysis and 10,000 events are acquired for each sample."}, "Glycan array, GcSTn": {"assay": "Glycan array, GcSTn", "format": "binding", "conditions": "summary table", "method": "(§1) Optimized glycan arrays comprise 71 chemically synthesized and well-defined glycans, most of which comprise Neu5Ac and Neu5Gc glycan pairs.\n(§2) 300 ml of epoxy blocking buffer is prepared by combining 15 ml of 2 M Tris buffer (pH 8) with 0.9 ml of 16.6 M ethanolamine and 284.1 ml of distilled water. The solution was brought to a final pH of 9.0 with HCl. The solution is filtered using a […] nitrocellulose membrane. The epoxy buffer solution as well as 1 L of distilled water are pre-warmed to 50° C. Glass slides are arranged in a slide holder and quickly submerged in a staining tub with the warmed epoxy blocking buffer. Slides are incubated in the epoxy blocking buffer for 1 hour at 50° C. with periodic shaking to deactivate epoxy binding sites. Next, slides are rinsed and blocked with PBS with 1% OVA at 25° C. for one hour. Serum samples with polyclonal antibodies (1:1000) or purified monoclonal antibodies (1 ug/mL), are diluted in PBS with 1% OVA and added to the glycan array for one hour at 25° C. After extensive washing, binding of antibodies are detected by incubating glycan microarray slides with Cy3-conjugated anti-mouse IgG (Jackson Immunoresearch, West Grove, Pa.) for one hour. Slides are then washed extensively, dried and scanned with a Genepix 4000B scanner (Laser at 100%; gain at 350; 10 μm pixels). Raw data from scanned images are extracted using the Genepix software and analysis of raw data is carried out."}, "Glycan array, AcSTn": {"assay": "Glycan array, AcSTn", "format": "binding", "conditions": "summary table", "method": "as §1, §2"}, "[2]": {"assay": "Glycan array STn specificity and anti-STn antibody group assignment", "format": "binding", "conditions": "summary table", "method": "as §2\nBased on characterization data, anti-STn antibodies developed from Group 6 and Group 8 mice were categorized by anti-STn group number. In some cases, antibodies were assigned to Group 1. Group 1 antibodies according to the invention are antibodies capable of binding AcSTn and GcSTn. Such antibodies may have the ability to associate with a wider range of STn structures. The large oval in FIG. 1A indicates the portion of STn recognized by Group 1 antibodies. Antibodies were assigned to Group 2 based on their ability to bind STn as well as some related structures that include an O-linkage to serine or threonine. The large oval in FIG. 1B indicates the portion of STn recognized by Group 2 antibodies. In some cases, Group 2 antibodies may bind to glycans comprising a sialylated galactose residue. Some Group 2 antibodies preferably bind to structures with AcSTn over structures with GcSTn. Further anti-STn antibodies were assigned to Group 3. Group 3 antibodies are antibodies capable of binding STn, but may also bind a broader set of related structures. […] The large oval in FIG. 1C indicates the portion of STn recognized by Group 3 antibodies. Finally, some anti-STn antibodies were assigned to Group 4. Group 4 antibodies are capable of binding to both AcSTn and GcSTn as well as the un-sialylated Tn antigen, and therefore have broader specificity. The large oval in FIG. 1D indicates the portion of STn recognized by Group 4 antibodies. […] Also listed in the Table is the antibody Isotype for each antibody as determined by the IsoStrip mouse monoclonal antibody isotyping kit (Roche Diagnostics GmbH, Manheim, Germany)."}}, "note": "Several values for one entry are separate records, joined by “and”; a condition that tells them apart may be missing. Equal entries are not always repeated."}
{"molecule": "S3F: 3F1 variable domains combined with IgG2a constant domains; heavy chain SEQ ID NO: 63, light chain SEQ ID NO: 64 (antibody) heavy: QVQLQQSDAELVKPGASVKISCKASGYTFTDHAIHWVKQKPEQGLDWIGYISPGNGDIKYNEKFKDKVTLTADKSSSTACMHLNSLTSEDSAVYFCKRSLLALDYWGQGTTLTVSSAKTTAPSVYPLAPVCGDTTGSSVTLGCLVKGYFPEPVTLTWNSGSLSSGVHTFPAVLQSDLYTLSSSVTVTSSTWPSQSITCNVAHPASSTKVDKKIEPRGPTIKPCPPCKCPAPNLLGGPSVFIFPPKIKDVLMISLSPIVTCVVVDVSEDDPDVQISWFVNNVEVHTAQTQTHREDYNSTLRVVSALPIQHQDWMSGKEFKCKVNNKDLPAPIERTISKPKGSVRAPQVYVLPPPEEEMTKKQVTLTCMVTDFMPEDIYVEWTNNGKTELNYKNTEPVLDSDGSYFMYSKLRVEKKNWVERNSYSCSVVHEGLHNHHTTKSFSRTPGK light: DIVMTQSHKFMSTSVGDRVSITCKASQDVGTNIAWYQQKPGRSPKVLIYSASTRHTGVPDRFTGSGSGTDFTLTISNVQSEDLTDYFCQQYSSFPLTFGVGTKLELKRADAAPTVSIFPPSSEQLTSGGASVVCFLNNFYPKDINVKWKIDGSERQNGVLNSWTDQDSKDSTYSMSSTLTLTKDEYERHNSYTCEATHKTSTSPIVKSFNRNEC", "values": [{"measurement": "EC50, flow cytometry binding to cell-associated STn", "setting": "[1]; ST6GalNAc 1 transfected MDA-MB-231 cells, APC anti-mouse IgG", "result": "2.051 nM and 2.13 nM and 1.94 nM"}, {"measurement": "EC50", "setting": "[1]; summary table, unit not printed (same values in nM), read-out: Flow cytometry (EC50) MDA-STn+", "result": 1.06, "unit": "nM"}, {"measurement": "Glycan Array GcSTn", "setting": "Glycan array, GcSTn", "result": 31, "unit": "%"}, {"measurement": "Glycan Array AcSTn", "setting": "Glycan array, AcSTn", "result": 63, "unit": "%"}, {"measurement": "Glycan Array STn Specificity", "setting": "[2]", "result": 94, "unit": "%"}]}
